Literature values in PMC3470569.

Biological target: V-ATPase subunit a proximal lobe of N-terminal domain (Saccharomyces cerevisiae) (UniProt P32563)
Sequence (P32563 104-372): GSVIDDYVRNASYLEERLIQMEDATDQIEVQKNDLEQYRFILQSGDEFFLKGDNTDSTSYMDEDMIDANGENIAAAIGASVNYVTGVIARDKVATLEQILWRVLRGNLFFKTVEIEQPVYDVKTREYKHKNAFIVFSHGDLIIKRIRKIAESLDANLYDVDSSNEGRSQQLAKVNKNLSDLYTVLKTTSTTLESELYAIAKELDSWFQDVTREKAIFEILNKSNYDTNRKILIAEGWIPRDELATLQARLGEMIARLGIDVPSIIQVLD

Sequence of V-ATPase subunit C Cfoot (P31412 158-277): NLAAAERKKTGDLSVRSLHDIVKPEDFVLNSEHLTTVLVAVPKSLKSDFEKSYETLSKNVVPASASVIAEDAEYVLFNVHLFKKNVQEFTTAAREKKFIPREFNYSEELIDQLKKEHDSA

Kd: 30 µM
Substance: V-ATPase subunit C Cfoot (from UniProt P31412)
